These results are taken from article PMC3646915 (Journal of molecular biology, 2013).

B2: AtHsp18.5 tryptic fragment 12–153 (domain or fragment, Arabidopsis thaliana, UniProt O64564 12-153, looked up)
chain: LSPGDRIWEPFELMNTFLDFPSPALFLSHHFPSLSREIFPQTSSSTVNTQLNWTETPTAHVFKAYLPGVDQDEVIAFVDEEGYLQICTGDNKFMSRFKLPNNALTDQVTAWMEDEFLVVFVEKDASSSPPQLPEIEENRNVR
B4: AtHsp18.5 tryptic fragment 11–150 (domain or fragment, Arabidopsis thaliana, UniProt O64564 11-150, looked up)
chain: RLSPGDRIWEPFELMNTFLDFPSPALFLSHHFPSLSREIFPQTSSSTVNTQLNWTETPTAHVFKAYLPGVDQDEVIAFVDEEGYLQICTGDNKFMSRFKLPNNALTDQVTAWMEDEFLVVFVEKDASSSPPQLPEIEENR
B5: AtHsp18.5 tryptic fragment 11–153 (domain or fragment, Arabidopsis thaliana, UniProt O64564 11-153, looked up)
chain: RLSPGDRIWEPFELMNTFLDFPSPALFLSHHFPSLSREIFPQTSSSTVNTQLNWTETPTAHVFKAYLPGVDQDEVIAFVDEEGYLQICTGDNKFMSRFKLPNNALTDQVTAWMEDEFLVVFVEKDASSSPPQLPEIEENRNVR

Read-outs that look alike come from different tables or passages of the source.

The target in data set [1] is firefly luciferase (firefly, UniProt P08659 1-550 = luciferase). In words: SEC. For orientation: SEC sorts molecules by how far they enter the pores of the column.
Sequence of firefly luciferase (P08659 whole entry): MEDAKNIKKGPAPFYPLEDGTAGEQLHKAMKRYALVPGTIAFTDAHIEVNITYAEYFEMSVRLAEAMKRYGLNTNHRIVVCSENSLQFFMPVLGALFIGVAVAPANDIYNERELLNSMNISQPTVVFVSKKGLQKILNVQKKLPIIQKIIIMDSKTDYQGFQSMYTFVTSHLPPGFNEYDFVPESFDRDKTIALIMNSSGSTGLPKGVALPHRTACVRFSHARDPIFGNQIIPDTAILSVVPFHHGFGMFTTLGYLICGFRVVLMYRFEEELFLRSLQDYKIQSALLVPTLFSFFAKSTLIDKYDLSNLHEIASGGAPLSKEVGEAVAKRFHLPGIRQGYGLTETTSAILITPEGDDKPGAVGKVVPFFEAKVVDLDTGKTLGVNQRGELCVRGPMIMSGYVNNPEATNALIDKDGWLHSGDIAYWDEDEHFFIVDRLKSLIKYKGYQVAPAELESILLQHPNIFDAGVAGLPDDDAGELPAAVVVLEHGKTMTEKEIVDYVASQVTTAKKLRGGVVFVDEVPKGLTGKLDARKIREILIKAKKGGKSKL
In data set [2] the target is T1, porcine mitochondrial malate dehydrogenase (porcine, UniProt P00346 25-338).
T1 sequence (looked up): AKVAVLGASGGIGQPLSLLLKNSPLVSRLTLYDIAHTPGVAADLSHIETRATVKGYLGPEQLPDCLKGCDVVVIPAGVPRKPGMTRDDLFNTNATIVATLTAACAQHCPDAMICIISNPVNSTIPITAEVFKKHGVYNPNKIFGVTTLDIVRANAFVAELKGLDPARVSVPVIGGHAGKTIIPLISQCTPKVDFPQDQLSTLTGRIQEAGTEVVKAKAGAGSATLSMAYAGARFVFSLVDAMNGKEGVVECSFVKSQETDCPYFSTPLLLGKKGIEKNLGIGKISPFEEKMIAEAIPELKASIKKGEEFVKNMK
The experiment in a line: SEC.

Data set [3] deals with the molecule itself. The experiment in a line: native MS.
Data set [4] deals with the molecule itself. The experiment in a line: native MS. The source holds these as a separate data set.
Data set [5] has as its target B5. The experiment in a line: native MS.
Data set [6] addresses B4. In words: native MS.
Data set [7] addresses B2. The experiment in a line: native MS.
Data set [8] deals with the molecule itself. The experiment in a line: native gel or EMSA. Background: Mobility shift assays separate free from complexed probe on a gel.
Data set [9] concerns the molecule itself. The experiment in a line: native gel or EMSA + cross-linking + native MS + AUC.

B1: PsHsp18.1, cytosolic class I sHSP from Pisum sativum (natural protein, UniProt P19243 1-158, looked up)
chain: MSLIPSFFSGRRSNVFDPFSLDVWDPLKDFPFSNSSPSASFPRENPAFVSTRVDWKETPEAHVFKADLPGLKKEEVKVEVEDDRVLQISGERSVEKEDKNDEWHRVERSSGKFLRRFRLPENAKMDKVKASMENGVLTVTVPKEEIKKAEVKSIEISG
As for B1, the binding result in data set [1] and in [2] was “binds” throughout.

Consider B2, for which, in [3], the binding result is “binds”.

B3: AtHsp18.5 truncation mutant 25–153 (domain or fragment, Arabidopsis thaliana, UniProt O64564 25-153, looked up)
chain: MNTFLDFPSPALFLSHHFPSLSREIFPQTSSSTVNTQLNWTETPTAHVFKAYLPGVDQDEVIAFVDEEGYLQICTGDNKFMSRFKLPNNALTDQVTAWMEDEFLVVFVEKDASSSPPQLPEIEENRNVR
For the molecule B3, the binding result in [4] is reported as “binds”.

As to B4, the binding result in data set [3] is given as “binds”.

Turning to B5, in [3], the binding result is “binds”.

B6: AtHsp18.5 tryptic fragment 48–153 (domain or fragment, Arabidopsis thaliana, UniProt O64564 48-153, looked up)
chain: EIFPQTSSSTVNTQLNWTETPTAHVFKAYLPGVDQDEVIAFVDEEGYLQICTGDNKFMSRFKLPNNALTDQVTAWMEDEFLVVFVEKDASSSPPQLPEIEENRNVR
Turning to B6, the binding result in data set [5], in [6] and in data set [7] was “binds” each time.

B7: AtHsp18.5 with N-terminal Strep II tag (natural protein, Arabidopsis thaliana, UniProt O64564 1-162, looked up)
chain: MSMIPISNRRRLSPGDRIWEPFELMNTFLDFPSPALFLSHHFPSLSREIFPQTSSSTVNTQLNWTETPTAHVFKAYLPGVDQDEVIAFVDEEGYLQICTGDNKFMSRFKLPNNALTDQVTAWMEDEFLVVFVEKDASSSPPQLPEIEENRNVRVVEITGDDD
The term stoichiometry N denotes a count of units in the complex or per binding partner. B7: the “stoichiometry N” value in data set [8] was found to be 2.

B8: AtHsp18.5 with C-terminal Strep II tag (natural protein, Arabidopsis thaliana, UniProt O64564 1-162, looked up)
chain: MSMIPISNRRRLSPGDRIWEPFELMNTFLDFPSPALFLSHHFPSLSREIFPQTSSSTVNTQLNWTETPTAHVFKAYLPGVDQDEVIAFVDEEGYLQICTGDNKFMSRFKLPNNALTDQVTAWMEDEFLVVFVEKDASSSPPQLPEIEENRNVRVVEITGDDD
For the molecule B8, in data set [8], the “stoichiometry N” value worked out at 2.

B9: AtHsp18.5 with Cys98 substituted by Ala (natural protein, Arabidopsis thaliana, UniProt O64564 1-162, looked up)
chain: MSMIPISNRRRLSPGDRIWEPFELMNTFLDFPSPALFLSHHFPSLSREIFPQTSSSTVNTQLNWTETPTAHVFKAYLPGVDQDEVIAFVDEEGYLQIATGDNKFMSRFKLPNNALTDQVTAWMEDEFLVVFVEKDASSSPPQLPEIEENRNVRVVEITGDDD
B9: the “stoichiometry N” value in data set [9] was determined as 2.
